Laboratory results: patent WO2013157102A1 (dated 2013)

How the values were obtained:
[1] = target: T1, mucin subtype 5AC expressed on BxPC3 cells (human, UniProt P98088 28-5654); test: flow cytometry on BxPC3 cells expressing mucin subtype 5AC, 20 ug/mL antibody, Alexa Fluor 488 anti-human IgG
T1 construct: whole, on cells; also called mucin 5AC; MUC5AC

[2] = target: T1, mucin subtype 5AC expressed on BxPC3 …; test: flow cytometry on BxPC3 cells expressing mucin subtype 5AC, 20 ug/mL antibody, Alexa Fluor 488 anti-mouse IgG; mouse antibody is the positive reference

Row | Binder | binding result [1] | binding result [2]
1 | humanized antibody 1 (antibody, V domains shown, Expressed transiently in HEK293 cells and detected with anti-human IgG; also called VH-1 combined with VL-1; mucin subtype 5AC-specific humanized antibody) VH: QVQLVESGGGVVQPGRSLRLSCSSSGFIFSNYGMSWVRQAPEKRLEWVATISNSGRYTYFPDSVKGRFTISRDNSKNTLFLQMDSLRPEDTGVYFCARHLDYANYDAMDYWGQGTPVTVSS VL: DIVMTQSPNSLAVSLGERATINCRASKSVTTSDFSYMHWYQQKPGQPPKLLIYLASNLESGVPDRFSGSGSGTDFTLTISSLQAEDVAVYYCQHSREFPWTFGQGTKLEIK | binds | 
2 | humanized antibody 2 (antibody, V domains shown, Detected with anti-human IgG; also called VH-4 combined with VL-5; mucin subtype 5AC-specific humanized antibody) VH: EVQLLESGGGLVQPGGSLRLSCAASGFTFSNYGMSWVRQAPGKGLEWVSTISNSGRYTYFPDSVKGRFTISRDNSKNTLYLQMNSLRAEDTAVYYCAKHLDYANYDAMDYWGQGTLVTVSS VL: DIVMTQTPLSSPVTLGQPASISCRASKSVTTSDFSYMHWLQQRPGQPPRLLIYLASNLESGVPDRFSGSGAGTDFTLKISRVEAEDVGVYYCQHSREFPWTFGQGTKVEIK | binds | 
3 | humanized antibody 9 (antibody, V domains shown, Detected with anti-human IgG; also called VH-3 combined with VL-5; mucin subtype 5AC-specific humanized antibody) VH: QVQLQESGPGLVRPSQSLKLTCTVSGSTFSNYGMSWVRQTPEKRLEWIGTISNSGRYTYFPDSVKGRVTMLVDTSKNQFSLQMSSVTAADTAVYYCARHLDYANYDAMDYWGQGSLVTVSS VL: DIVMTQTPLSSPVTLGQPASISCRASKSVTTSDFSYMHWLQQRPGQPPRLLIYLASNLESGVPDRFSGSGAGTDFTLKISRVEAEDVGVYYCQHSREFPWTFGQGTKVEIK | binds | 
4 | humanized antibody 4 (antibody, V domains shown, also called VH-4 combined with VL-3; mucin subtype 5AC-specific humanized antibody) VH: EVQLLESGGGLVQPGGSLRLSCAASGFTFSNYGMSWVRQAPGKGLEWVSTISNSGRYTYFPDSVKGRFTISRDNSKNTLYLQMNSLRAEDTAVYYCAKHLDYANYDAMDYWGQGTLVTVSS VL: DIQMTQSPSSLAVSLGDRVTITCRASKSVTTSDFSYMHWYQQKPGLAPKLLIYLASNLESGVPSRFSGSGSGTDFTFTISSLQPEDIATYYCQHSREFPWTFGQGTKVEVK | binds | 
5 | humanized antibody 10 (antibody, V domains shown, Detected with anti-human IgG; also called VH-4 combined with VL-7; mucin subtype 5AC-specific humanized antibody) VH: EVQLLESGGGLVQPGGSLRLSCAASGFTFSNYGMSWVRQAPGKGLEWVSTISNSGRYTYFPDSVKGRFTISRDNSKNTLYLQMNSLRAEDTAVYYCAKHLDYANYDAMDYWGQGTLVTVSS VL: DIVMTQTPLSLSVTPGQPASISCRASKSVTTSDFSYMHWYLQKPGQPPQLLIYLASNLESGVPDRFSGSGSGTDFTLKISRVEAEDVGVYYCQHSREFPWTFGQGTKVEIK | binds | 

The remaining lines, values ahead:

Row | binding result [1] | binding result [2] | Binder
6 | binds |  | humanized antibody 7 (antibody, V domains shown, Detected with anti-human IgG; also called VH-6 combined with VL-5; mucin subtype 5AC-specific humanized antibody) VH: EVQLVESGGGVVRPGGSLRLSCAASGFTFDNYGMSWVRQAPGKGLEWVSTISNSGRYTYFPDSVKGRFTISRDNAKNSLYLQMNSLRAEDTALYHCARHLDYANYDAMDYWGQGTLVTVSS VL: DIVMTQTPLSSPVTLGQPASISCRASKSVTTSDFSYMHWLQQRPGQPPRLLIYLASNLESGVPDRFSGSGAGTDFTLKISRVEAEDVGVYYCQHSREFPWTFGQGTKVEIK
7 | binds |  | humanized antibody 6 (antibody, V domains shown, Detected with anti-human IgG; also called VH-5 combined with VL-5; mucin subtype 5AC-specific humanized antibody) VH: EVQLVESGGGLVKPGGSLRLSCAASGFTFSNYGMSWVRQAPGKGLEWVSTISNSGRYTYFPDSVKGRFTISRDNAKNSLYLQMNSLRAEDTAVYYCARHLDYANYDAMDYWGQGTLVTVSS VL: DIVMTQTPLSSPVTLGQPASISCRASKSVTTSDFSYMHWLQQRPGQPPRLLIYLASNLESGVPDRFSGSGAGTDFTLKISRVEAEDVGVYYCQHSREFPWTFGQGTKVEIK
8 | binds |  | humanized antibody 3 (antibody, V domains shown, Detected with anti-human IgG; also called VH-4 combined with VL-2; mucin subtype 5AC-specific humanized antibody) VH: EVQLLESGGGLVQPGGSLRLSCAASGFTFSNYGMSWVRQAPGKGLEWVSTISNSGRYTYFPDSVKGRFTISRDNSKNTLYLQMNSLRAEDTAVYYCAKHLDYANYDAMDYWGQGTLVTVSS VL: DIQMTQSPSTLAVSLGDRVTITCRASKSVTTSDFSYMHWYQQKPGKAPKLLMYLASNLESGVPSRFIGSGSGTEFTLTISSLQPDDFATYYCQHSREFPWTFGQGTKVEVK
9 | binds |  | humanized antibody 5 (antibody, V domains shown, Detected with anti-human IgG; also called VH-4 combined with VL-4; mucin subtype 5AC-specific humanized antibody) VH: EVQLLESGGGLVQPGGSLRLSCAASGFTFSNYGMSWVRQAPGKGLEWVSTISNSGRYTYFPDSVKGRFTISRDNSKNTLYLQMNSLRAEDTAVYYCAKHLDYANYDAMDYWGQGTLVTVSS VL: DIQMTQSPSSLAVSLGDRVTITCRASKSVTTSDFSYMHWYQQTPGKAPKLLIYLASNLESGVPSRFSGSGSGTDYTFTISSLQPEDIATYYCQHSREFPWTFGQGTKLQIT
10 |  | binds | mucin subtype 5AC-specific mouse antibody (antibody, V domains shown, Detected with anti-mouse IgG) VH: EVKLVESGGVLVKSGGSLKLSCAVSGFTFSNYGMSWVRQTPEKRLEWVATISNSGRYTYFPDSVKGRFAISRDNAKNNLYLQMSSLRSADTALYYCTRHLDYANYDAMDYWGQGTSVTVSS VL: DIVLTQSPASLAVSLGQRATISCRASKSVTTSDFSYMHWYQQKPGQPPKLLLYLASNLESGVPDRFSGSGSGTDFTLNIHPVEEEDAATYYCQHSREFPWTFGGGTKLEIK
